Results: paper doi:10.1101/2022.06.27.497840 (bioRxiv, 2022)
Blank lines part the entries; values can stand above or below the molecule they belong to.

B3: Top3/GST-Rmi1 complex (complex)
chain 1: MKVLCVAEKNSIAKAVSQILGGGRSTSRDSGYMYVKNYDFMFSGFPFARNGANCEVTMTSVAGHLTGIDFSHDSHGWGKCAIQELFDAPLNEIMNNNQKKIASNIKREARNADYLMIWTDCDREGEYIGWEIWQEAKRGNRLIQNDQVYRAVFSHLERQHILNAARNPSRLDMKSVHAVGTRIEIDLRAGVTFTRLLTETLRNKLRNQATMTKDGAKHRGGNKNDSQVVSYGTCQFPTLGFVVDRFERIRNFVPEEFWYIQLVVENKDNGGTTTFQWDRGHLFDRLSVLTFYETCIETAGNVAQVVDLKSKPTTKYRPLPLTTVELQKNCARYLRLNAKQSLDAAEKLYQKGFISYPRTETDTFPHAMDLKSLVEKQAQLDQLAAGGRTAWASYAASLLQPENTSNNNKFKFPRSGSHDDKAHPPIHPIVSLGPEANVSPVERRVYEYVARHFLACCSEDAKGQSMTLVLDWAVERFSASGLVVLERNFLDVYPWARWETTKQLPRLEMNALVDIAKAEMKAGTTAPPKPMTESELILLMDTNGIGTDATIAEHIDKIQVRNYVRSEKVGKETYLQPTTLGVSLVHGFEAIGLEDSFAKPFQRREMEQDLKKICEGHASKTDVVKDIVEKYRKYWHKTNACKNTLLQVYDRVKASM
chain 2: MSFSSILSQDITDDITPPAYSATLGSREQIVFRAYQNEPWLAGTASNLILDKKLVIVDRELLFQVLMVENITKSKLTQIDDIKTKLDPKKQKVDRLRSGAQGNGAKKYEVITQVDMEDDGNVADNNCAKENNSNNNSSAAKNKAVFKLTLQSKSGDVFFAINSTPISWSSCMLGSKIVILPGTVFNRGVFILKDSQVIFLGGINRVWNENRDQKFCDYLESKLQRDKQLVNGGSKKRKAND
B5: Top3 (untagged, subunit of the Top3/Rmi1 complex) (enzyme)
chain: MKVLCVAEKNSIAKAVSQILGGGRSTSRDSGYMYVKNYDFMFSGFPFARNGANCEVTMTSVAGHLTGIDFSHDSHGWGKCAIQELFDAPLNEIMNNNQKKIASNIKREARNADYLMIWTDCDREGEYIGWEIWQEAKRGNRLIQNDQVYRAVFSHLERQHILNAARNPSRLDMKSVHAVGTRIEIDLRAGVTFTRLLTETLRNKLRNQATMTKDGAKHRGGNKNDSQVVSYGTCQFPTLGFVVDRFERIRNFVPEEFWYIQLVVENKDNGGTTTFQWDRGHLFDRLSVLTFYETCIETAGNVAQVVDLKSKPTTKYRPLPLTTVELQKNCARYLRLNAKQSLDAAEKLYQKGFISYPRTETDTFPHAMDLKSLVEKQAQLDQLAAGGRTAWASYAASLLQPENTSNNNKFKFPRSGSHDDKAHPPIHPIVSLGPEANVSPVERRVYEYVARHFLACCSEDAKGQSMTLVLDWAVERFSASGLVVLERNFLDVYPWARWETTKQLPRLEMNALVDIAKAEMKAGTTAPPKPMTESELILLMDTNGIGTDATIAEHIDKIQVRNYVRSEKVGKETYLQPTTLGVSLVHGFEAIGLEDSFAKPFQRREMEQDLKKICEGHASKTDVVKDIVEKYRKYWHKTNACKNTLLQVYDRVKASM

Assays:
[1] = target: Mer3-Strep (full-length S. cerevisiae Mer3 with C-terminal 2xStrep-II tag) (Saccharomyces cerevisiae (SK1)) (UniProt P51979); test: SEC-MALS
Top3/GST-Rmi1 complex = target: B3; test: pull-down
[2] = target: B5; test: cross-linking
MBP-Mlh2 = target: T1, MBP-Mlh2 (Saccharomyces cerevisiae (SK1), UniProt Q07980 1-695); test: cross-linking
T1 sequence: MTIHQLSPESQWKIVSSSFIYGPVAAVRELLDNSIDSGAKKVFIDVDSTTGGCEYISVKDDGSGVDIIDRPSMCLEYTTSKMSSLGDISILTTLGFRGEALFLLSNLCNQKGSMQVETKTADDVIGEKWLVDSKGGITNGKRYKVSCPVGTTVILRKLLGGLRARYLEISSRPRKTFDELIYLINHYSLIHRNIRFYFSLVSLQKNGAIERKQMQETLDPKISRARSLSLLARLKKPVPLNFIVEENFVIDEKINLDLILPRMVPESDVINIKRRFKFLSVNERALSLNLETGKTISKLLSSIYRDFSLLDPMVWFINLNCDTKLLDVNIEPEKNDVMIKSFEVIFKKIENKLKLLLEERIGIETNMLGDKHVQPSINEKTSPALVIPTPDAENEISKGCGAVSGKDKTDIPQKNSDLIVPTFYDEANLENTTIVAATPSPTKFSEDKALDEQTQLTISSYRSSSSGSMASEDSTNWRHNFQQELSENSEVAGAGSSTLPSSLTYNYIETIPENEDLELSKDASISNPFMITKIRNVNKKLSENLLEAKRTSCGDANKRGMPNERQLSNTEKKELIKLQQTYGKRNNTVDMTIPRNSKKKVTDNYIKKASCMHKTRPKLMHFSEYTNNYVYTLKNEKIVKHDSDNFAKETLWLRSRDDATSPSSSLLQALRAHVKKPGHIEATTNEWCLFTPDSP

[3] = target: T2, MBP-Mlh1/MBP-Mlh2 complex (Saccharomyces cerevisiae (SK1), UniProt P38920;Q07980); test: pull-down
T2 sequence 1: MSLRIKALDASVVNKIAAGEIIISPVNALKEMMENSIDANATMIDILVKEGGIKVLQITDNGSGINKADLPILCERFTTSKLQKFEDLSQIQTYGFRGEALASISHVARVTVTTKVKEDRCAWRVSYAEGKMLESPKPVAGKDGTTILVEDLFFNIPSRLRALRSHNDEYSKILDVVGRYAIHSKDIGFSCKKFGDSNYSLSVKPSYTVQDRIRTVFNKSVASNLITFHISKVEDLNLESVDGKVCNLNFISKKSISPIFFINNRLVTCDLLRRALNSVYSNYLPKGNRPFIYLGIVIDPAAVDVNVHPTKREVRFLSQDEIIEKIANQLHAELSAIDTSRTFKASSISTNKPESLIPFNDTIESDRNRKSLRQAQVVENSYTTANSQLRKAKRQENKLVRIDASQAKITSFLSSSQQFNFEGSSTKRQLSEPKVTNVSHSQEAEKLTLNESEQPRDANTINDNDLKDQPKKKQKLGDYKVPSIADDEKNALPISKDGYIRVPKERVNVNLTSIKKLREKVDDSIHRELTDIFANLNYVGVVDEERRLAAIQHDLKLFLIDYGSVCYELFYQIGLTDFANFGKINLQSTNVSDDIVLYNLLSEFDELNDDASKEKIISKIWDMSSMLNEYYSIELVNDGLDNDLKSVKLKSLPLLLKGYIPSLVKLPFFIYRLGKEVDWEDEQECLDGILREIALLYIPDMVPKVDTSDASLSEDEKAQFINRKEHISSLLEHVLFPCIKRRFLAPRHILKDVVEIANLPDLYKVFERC
T2 sequence 2: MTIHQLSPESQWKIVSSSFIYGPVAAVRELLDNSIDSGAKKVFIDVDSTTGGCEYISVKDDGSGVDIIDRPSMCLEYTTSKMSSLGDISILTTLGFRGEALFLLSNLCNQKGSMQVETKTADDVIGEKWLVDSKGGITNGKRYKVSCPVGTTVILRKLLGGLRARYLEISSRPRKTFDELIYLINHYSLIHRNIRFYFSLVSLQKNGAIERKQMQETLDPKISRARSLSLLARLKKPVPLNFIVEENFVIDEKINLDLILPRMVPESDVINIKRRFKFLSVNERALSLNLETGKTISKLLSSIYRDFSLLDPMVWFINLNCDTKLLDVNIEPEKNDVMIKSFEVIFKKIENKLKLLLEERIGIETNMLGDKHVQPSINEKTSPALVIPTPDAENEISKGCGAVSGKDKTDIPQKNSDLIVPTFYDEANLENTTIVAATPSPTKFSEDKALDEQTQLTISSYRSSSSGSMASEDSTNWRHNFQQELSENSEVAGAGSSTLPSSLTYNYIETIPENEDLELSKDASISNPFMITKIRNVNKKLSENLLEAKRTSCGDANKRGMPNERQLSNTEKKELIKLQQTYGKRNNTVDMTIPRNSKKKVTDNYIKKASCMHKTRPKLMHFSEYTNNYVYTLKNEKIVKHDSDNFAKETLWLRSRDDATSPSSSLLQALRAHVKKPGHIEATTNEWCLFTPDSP

MBP-Mlh1 = target: T3, MBP-Mlh1 (Saccharomyces cerevisiae (SK1), UniProt P38920 1-769); test: cross-linking
T3 sequence: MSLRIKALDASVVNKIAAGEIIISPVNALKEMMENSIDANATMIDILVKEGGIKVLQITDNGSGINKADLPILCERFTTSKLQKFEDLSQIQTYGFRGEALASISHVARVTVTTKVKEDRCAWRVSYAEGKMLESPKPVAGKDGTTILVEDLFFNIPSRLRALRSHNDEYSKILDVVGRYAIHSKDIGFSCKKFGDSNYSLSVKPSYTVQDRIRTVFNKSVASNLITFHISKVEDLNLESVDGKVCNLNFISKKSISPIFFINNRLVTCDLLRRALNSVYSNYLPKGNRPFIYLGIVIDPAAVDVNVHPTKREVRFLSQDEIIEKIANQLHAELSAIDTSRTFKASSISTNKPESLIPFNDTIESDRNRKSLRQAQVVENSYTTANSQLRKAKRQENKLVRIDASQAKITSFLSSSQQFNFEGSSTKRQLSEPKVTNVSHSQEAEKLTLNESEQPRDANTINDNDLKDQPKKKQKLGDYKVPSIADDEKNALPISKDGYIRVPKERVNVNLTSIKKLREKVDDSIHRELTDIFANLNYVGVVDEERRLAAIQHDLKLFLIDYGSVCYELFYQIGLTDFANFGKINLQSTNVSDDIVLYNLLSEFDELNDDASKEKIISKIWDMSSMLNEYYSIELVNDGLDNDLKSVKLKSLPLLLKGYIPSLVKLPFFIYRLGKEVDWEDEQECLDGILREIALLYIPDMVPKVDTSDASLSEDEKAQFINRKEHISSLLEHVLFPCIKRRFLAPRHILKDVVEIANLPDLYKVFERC

stoichiometry N [1]: 2
Molecule: Mer3-Strep (full-length S. cerevisiae Mer3 with C-terminal 2xStrep-II tag) (from UniProt P51979 1-1187) (enzyme)

binding result (Top3/GST-Rmi1 complex): binds
B1: His-tagged Sgs1(1-107) fragment (domain or fragment)
chain: MVTKPSHNLRREHKWLKETATLQEDKDFVFQAIQKHIANKRPKTNSPPTTPSKDECGPGTTNFITSIPASGPTNTATKQHEVMQTLSNDTEWLSYTATSNQYADVPM

binding result [2]: binds
binding result (MBP-Mlh2): binds
B2: Rmi1 (subunit of the Top3/Rmi1 complex as used in XL-MS) (natural protein)
chain: MSFSSILSQDITDDITPPAYSATLGSREQIVFRAYQNEPWLAGTASNLILDKKLVIVDRELLFQVLMVENITKSKLTQIDDIKTKLDPKKQKVDRLRSGAQGNGAKKYEVITQVDMEDDGNVADNNCAKENNSNNNSSAAKNKAVFKLTLQSKSGDVFFAINSTPISWSSCMLGSKIVILPGTVFNRGVFILKDSQVIFLGGINRVWNENRDQKFCDYLESKLQRDKQLVNGGSKKRKAND

Molecule: B3
binding result [3]: binds

binding result (Top3/GST-Rmi1 complex): binds
B4: Sgs1(1-605) fragment, untagged (domain or fragment)
chain: MVTKPSHNLRREHKWLKETATLQEDKDFVFQAIQKHIANKRPKTNSPPTTPSKDECGPGTTNFITSIPASGPTNTATKQHEVMQTLSNDTEWLSYTATSNQYADVPMVDIPASTSVVSNPRTPNGSKTHNFNTFRPHMASSLVENDSSRNLGSRNNNKSVIDNSSIGKQLENDIKLEVIRLQGSLIMALKEQSKLLLQKCSIIESTSLSEDAKRLQLSRDIRPQLSNMSIRIDSLEKEIIKAKKDGMSKDQSKGRSQVSSQDDNIISSILPSPLEYNTSSRNSNLTSTTATTVTKALAITGAKQNITNNTGKNSNNDSNNDDLIQVLDDEDDIDCDPPVILKEGAPHSPAFPHLHMTSEEQDELTRRRNMRSREPVNYRIPDRDDPFDYVMGKSLRDDYPDVEREEDELTMEAEDDAHSSYMTTRDEEKEENELLNQSDFDFVVNDDLDPTQDTDYHDNMDVSANIQESSQEGDTRSTITLSQNKNVQVILSSPTAQSVPSNGQNQIGVEHIDLLEDDLEKDAILDDSMSFSFGRQHMPMSHSDLELIDSEKENEDFEEDNNNNGIEYLSDSDLERFDEERENRTQVADIQELDNDLKIITERKL

Molecule: B5
binding result (MBP-Mlh1): binds
